Results on two molecules are retold here after patent publication US20220332804A1 (CSL INNOVATION, published 2022).

Assay [1] deals with T1, human complement C2 zymogen (human, UniProt P06681 21-752).
T1 construct: also called huC2; human C2
T1 sequence: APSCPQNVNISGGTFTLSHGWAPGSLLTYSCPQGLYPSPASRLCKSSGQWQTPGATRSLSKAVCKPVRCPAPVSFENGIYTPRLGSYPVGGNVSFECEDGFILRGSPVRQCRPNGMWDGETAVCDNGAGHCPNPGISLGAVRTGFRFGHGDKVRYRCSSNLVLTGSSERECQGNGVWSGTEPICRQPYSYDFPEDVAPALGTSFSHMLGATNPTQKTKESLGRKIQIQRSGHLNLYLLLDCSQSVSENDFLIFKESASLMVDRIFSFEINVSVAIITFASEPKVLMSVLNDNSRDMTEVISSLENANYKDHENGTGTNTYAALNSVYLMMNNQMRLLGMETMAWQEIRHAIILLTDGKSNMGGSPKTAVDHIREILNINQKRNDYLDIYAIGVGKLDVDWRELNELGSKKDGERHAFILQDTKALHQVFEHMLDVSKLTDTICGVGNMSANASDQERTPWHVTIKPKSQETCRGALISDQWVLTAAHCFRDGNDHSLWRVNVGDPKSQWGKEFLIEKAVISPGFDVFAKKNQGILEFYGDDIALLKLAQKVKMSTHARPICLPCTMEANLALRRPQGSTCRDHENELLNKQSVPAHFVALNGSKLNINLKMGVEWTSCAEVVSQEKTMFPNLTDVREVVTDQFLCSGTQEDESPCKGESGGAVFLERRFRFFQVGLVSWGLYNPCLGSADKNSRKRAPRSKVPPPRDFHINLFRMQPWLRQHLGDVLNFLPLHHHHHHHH
The assay can be described thus: SPR kinetics, captured antibody, analyte huC2 0 mM Ca^2+, pH 7.3.
Description: (§1) Surface plasmon resonance (SPR, Biacore) was used for all binding affinity analyses. In brief, goat anti-human IgG was directly immobilised onto the carboxymethyl dextran surface of CM5 sensorchips to approximately 12,000 RU using standard NHS/EDC chemistry at pH 5. The immobilised antibody surface was pre-conditioned with ten injections of polyclonal human IgG (Privigen 60 s) prepared at 1 μg/mL. Ligands (anti-C2 mAbs) were captured at the beginning of each cycle as described below. An adjacent spot or flow cell in which only Polyclonal IgG was capture was used as a reference surface. The goat anti-human IgG Fc antibody surface was regenerate in 100 mM H3PO4, injected for 45 seconds at the end of each cycle. Experiments were performed at 37° C. and the flow rate of each experiment was kept constant at 30 μL/min.
(§2) Calcium concentrations ranged from zero (i.e. no added calcium, control) to near physiological levels (0.02, 0.2 and 2 mM CaCl₂.2H₂O, MW 147.02 Da).

Assay [2] has as its target T1, human complement C2 zymogen. Nature of the assay: SPR, human C2 zymogen analyte, HBS-EP, pH 7.3, 37 C. (In general: Surface plasmon resonance follows binding to a sensor surface in real time, without labels.)
Description: as §1
(§3) Purified human C2 zymogen and human C2a were tested at concentrations ranging from 1.9 to 500 nM while human C2b was tested at concentrations ranging from 1.9 to 1000 nM. All experiments were performed in HBS-EP buffer supplemented with 0.1% BSA at 37° C. and pH 7.3. Each antibody was tested against human C2 zymogen and human C2a in duplicate and against C2b in quadruplicate. The flow rate was set to 30 μL/min. Each analyte concentration was tested in duplicate.
The target is the same in assay [3]. The assay can be described thus: SPR steady state, captured antibody, analyte huC2 200 mM Ca^2+ (so in the source), pH 6.0.
Description: as §1
(§4) Sensogram data was double-referenced against a reference anti-IgG surface (i.e. minus anti-C2 mAb) and blank buffer injections obtained within each experiment. The binding data was fit to 1:1 (kinetic or steady-state) model using local Rmax and null refraction index (RI=0) when appropriate. Buffers and solutions were filtered (0.22 μm) prior to use.
as §2
Assay [4] shares this target. The assay can be described thus: SPR kinetics, captured antibody, analyte huC2 20 mM Ca^2+ (so in the source), pH 7.3.
Description: as §1, §2
The target is the same in assay [5]. The assay can be described thus: SPR steady state, captured antibody, analyte huC2 2000 mM Ca^2+ (so in the source), pH 6.0.
Description: as §1, §2
Assay [6] shares this target. The assay can be described thus: SPR steady state, captured antibody, analyte huC2 0 mM Ca^2+, pH 6.0.
Description: as §1, §2
The target is the same in assay [7]. The assay can be described thus: SPR kinetics, captured antibody, analyte huC2 2000 mM Ca^2+ (so in the source), pH 7.3.
Description: as §1, §2
The target of assay [8] is T2, cynomolgus monkey FcRn/β2m (cynomolgus monkey, UniProt Q8SPV9 24-297; Q8SPW0 21-119, limits assumed).
T2 construct: injected in solution over immobilised antibody; also called Cyno FcRn/β2m
T2 sequence (Q8SPV9 24-297 limits assumed, chain 1 of 2): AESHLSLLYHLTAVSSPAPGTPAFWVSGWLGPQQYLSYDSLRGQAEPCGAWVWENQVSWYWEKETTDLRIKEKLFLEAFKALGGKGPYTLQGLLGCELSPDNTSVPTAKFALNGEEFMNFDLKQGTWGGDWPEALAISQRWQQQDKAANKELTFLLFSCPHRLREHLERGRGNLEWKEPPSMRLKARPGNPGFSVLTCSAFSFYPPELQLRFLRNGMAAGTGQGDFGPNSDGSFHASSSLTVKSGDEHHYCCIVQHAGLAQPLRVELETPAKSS
T2 sequence (Q8SPW0 21-119 limits assumed, chain 2 of 2): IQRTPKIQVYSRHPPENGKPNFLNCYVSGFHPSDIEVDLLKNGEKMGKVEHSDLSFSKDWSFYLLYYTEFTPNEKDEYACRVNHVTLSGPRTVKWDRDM
Nature of the assay: SPR, immobilised antibody, cyno FcRn/b2m analyte, pH 6.0; pH 6.0.
Description: Anti-C2 mAbs (1 μg/mL at pH 5) were immobilized on a carboxylmethyldextran (CM5) sensorchip surface using standard EDC/NHS chemistry. Human and Cyno FcRn/β2m (40 μM) were prepared in running buffer (10 mM HEPES, 150 mM NaCl, 10 mM MES adjusted to either pH 6 or pH 7.3) and injected on the immobilized anti-C2 surface at concentrations ranging from 0.078 to 40 μM, prepared in two-fold dilutions in running buffer. Association and dissociation phases were monitored for 180 and 600 seconds, respectively. […] Double referenced sensorgrams were fitted to either a 1:1 kinetic model (pH 6), including a term for mass transport limitation or to a 1:1 steady state model (pH 7.3) where responses at the end of the association phase were plotted against respective concentrations.
Binding to both human and cynomolgus monkey FcRn was tested using the SPR methods described above.

The target of assay [9] is T3, human C2a (activated human C2) (human, UniProt P06681 244-752).
T3 construct: the whole entry is named here; also called huC2a
T3 sequence: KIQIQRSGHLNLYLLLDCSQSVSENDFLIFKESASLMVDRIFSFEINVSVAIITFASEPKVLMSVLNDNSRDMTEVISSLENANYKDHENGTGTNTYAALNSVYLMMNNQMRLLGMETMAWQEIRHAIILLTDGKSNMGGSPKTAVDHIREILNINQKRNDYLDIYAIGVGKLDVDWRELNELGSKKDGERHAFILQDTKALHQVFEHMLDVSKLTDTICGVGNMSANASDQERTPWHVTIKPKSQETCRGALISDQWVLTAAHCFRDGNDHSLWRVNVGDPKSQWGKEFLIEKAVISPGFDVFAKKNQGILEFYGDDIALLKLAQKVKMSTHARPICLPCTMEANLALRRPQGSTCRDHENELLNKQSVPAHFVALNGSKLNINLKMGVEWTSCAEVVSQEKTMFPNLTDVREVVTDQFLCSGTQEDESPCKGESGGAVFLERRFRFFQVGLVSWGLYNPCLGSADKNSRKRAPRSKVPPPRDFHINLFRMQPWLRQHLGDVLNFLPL
The assay can be described thus: SPR, HBS-EP, pH 7.3, 37 C.
Description: as §1, §3

The next assay concerns the target T4, human C2b (human, UniProt P06681 21-243).
T4 construct: the whole entry is named here
T4 sequence: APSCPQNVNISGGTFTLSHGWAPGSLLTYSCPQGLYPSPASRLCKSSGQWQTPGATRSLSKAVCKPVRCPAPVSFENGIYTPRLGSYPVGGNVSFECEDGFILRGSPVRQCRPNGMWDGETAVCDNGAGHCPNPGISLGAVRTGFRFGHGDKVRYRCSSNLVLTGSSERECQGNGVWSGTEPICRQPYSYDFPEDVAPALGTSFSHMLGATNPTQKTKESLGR
Nature of the assay: SPR, HBS-EP, pH 7.3, 37 C.

Assay [10] has as its target T1, human complement C2 zymogen. The assay can be described thus: SPR steady state, captured antibody, analyte huC2 20 mM Ca^2+ (so in the source), pH 6.0.
Description: as §1, §4, §2
Assay [11] shares this target. The assay can be described thus: SPR kinetics, captured antibody, analyte huC2 200 mM Ca^2+ (so in the source), pH 7.3.
Description: as §1, §2
The target in assay [12] is T5, cynomolgus monkey C2 (cynomolgus monkey, UniProt G8F3W0 21-752).
T5 sequence: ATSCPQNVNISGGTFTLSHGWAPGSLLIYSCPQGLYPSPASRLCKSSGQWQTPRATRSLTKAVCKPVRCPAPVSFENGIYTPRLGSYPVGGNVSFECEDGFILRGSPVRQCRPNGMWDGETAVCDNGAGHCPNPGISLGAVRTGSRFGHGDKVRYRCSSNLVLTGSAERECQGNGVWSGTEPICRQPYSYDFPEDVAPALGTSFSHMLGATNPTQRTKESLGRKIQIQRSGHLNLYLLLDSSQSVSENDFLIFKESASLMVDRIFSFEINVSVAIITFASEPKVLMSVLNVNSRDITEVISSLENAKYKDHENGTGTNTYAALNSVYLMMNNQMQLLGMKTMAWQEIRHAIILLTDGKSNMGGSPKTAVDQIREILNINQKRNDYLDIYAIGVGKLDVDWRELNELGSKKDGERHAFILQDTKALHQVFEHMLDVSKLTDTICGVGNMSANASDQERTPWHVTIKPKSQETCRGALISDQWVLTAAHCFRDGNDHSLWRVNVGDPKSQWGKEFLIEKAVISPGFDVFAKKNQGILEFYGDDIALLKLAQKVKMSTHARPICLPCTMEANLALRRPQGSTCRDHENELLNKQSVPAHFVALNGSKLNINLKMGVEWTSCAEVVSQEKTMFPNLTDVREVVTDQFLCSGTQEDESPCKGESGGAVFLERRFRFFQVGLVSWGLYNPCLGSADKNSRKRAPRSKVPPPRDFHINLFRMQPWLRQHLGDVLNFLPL
The assay can be described thus: cell-based or functional assay.

For assay [13], the target named is T6, human complement C2 (human, UniProt P06681 21-752).
T6 sequence: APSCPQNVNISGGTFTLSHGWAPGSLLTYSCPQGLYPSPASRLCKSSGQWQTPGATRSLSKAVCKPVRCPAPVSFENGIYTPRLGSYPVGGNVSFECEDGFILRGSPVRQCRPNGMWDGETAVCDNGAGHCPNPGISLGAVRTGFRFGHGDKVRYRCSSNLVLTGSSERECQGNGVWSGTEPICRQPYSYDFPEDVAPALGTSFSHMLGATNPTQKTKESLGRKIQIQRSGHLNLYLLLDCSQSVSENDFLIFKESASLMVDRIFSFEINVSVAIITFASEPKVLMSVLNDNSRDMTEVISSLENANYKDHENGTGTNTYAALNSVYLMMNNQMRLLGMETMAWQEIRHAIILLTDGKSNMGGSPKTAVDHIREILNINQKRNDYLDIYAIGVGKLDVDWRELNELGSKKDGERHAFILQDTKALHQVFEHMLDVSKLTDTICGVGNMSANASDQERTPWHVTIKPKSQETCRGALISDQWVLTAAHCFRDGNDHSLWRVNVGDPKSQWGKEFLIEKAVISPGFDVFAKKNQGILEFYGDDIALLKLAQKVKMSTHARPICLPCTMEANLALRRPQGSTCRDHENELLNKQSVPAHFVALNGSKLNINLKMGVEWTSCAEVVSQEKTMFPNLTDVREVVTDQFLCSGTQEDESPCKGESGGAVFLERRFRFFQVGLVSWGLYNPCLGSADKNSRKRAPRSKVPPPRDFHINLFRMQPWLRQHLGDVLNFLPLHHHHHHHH
Nature of the assay: cell-based or functional assay.

Assay [14] concerns the target T6, human complement C2. The assay can be described thus: SPR, mAb captured, C2 analyte, MHAs buffer, pH 7.3.
In assay [15] the target is T5, cynomolgus monkey C2. Nature of the assay: cell-based or functional assay. The source holds these as a separate data set.
The target of a further assay is T7, mouse C2 (mouse, UniProt P21180 19-760, limits assumed).
T7 sequence (looked up): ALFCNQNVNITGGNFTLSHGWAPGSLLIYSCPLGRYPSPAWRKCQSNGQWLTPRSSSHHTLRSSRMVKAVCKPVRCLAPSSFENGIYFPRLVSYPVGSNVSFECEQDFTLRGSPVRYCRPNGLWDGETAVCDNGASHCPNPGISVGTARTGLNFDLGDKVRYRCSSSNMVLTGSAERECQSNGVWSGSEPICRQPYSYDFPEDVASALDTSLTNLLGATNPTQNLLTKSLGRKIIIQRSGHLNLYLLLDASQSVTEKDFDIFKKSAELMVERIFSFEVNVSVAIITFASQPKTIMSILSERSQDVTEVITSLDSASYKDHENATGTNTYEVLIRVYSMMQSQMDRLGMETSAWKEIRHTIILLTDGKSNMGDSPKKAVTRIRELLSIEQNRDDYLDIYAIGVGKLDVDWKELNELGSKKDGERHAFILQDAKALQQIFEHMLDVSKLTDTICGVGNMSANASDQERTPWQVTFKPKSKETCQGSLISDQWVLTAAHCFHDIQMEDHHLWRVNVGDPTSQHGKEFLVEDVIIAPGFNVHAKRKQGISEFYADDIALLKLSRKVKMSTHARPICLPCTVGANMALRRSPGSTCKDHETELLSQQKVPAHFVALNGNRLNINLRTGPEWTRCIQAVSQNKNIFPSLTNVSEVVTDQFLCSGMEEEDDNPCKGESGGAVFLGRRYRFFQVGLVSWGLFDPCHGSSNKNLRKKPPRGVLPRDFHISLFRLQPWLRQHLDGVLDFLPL
The assay can be described thus: SPR, mAb captured, mouse C2 analyte, pH 7.3.

Assay [16] deals with T5, cynomolgus monkey C2. The assay can be described thus: SPR, mAb captured, cyno C2 analyte, pH 7.3.
The target in assay [17] is T6, human complement C2. Nature of the assay: SPR, mAb captured, C2 analyte, HBS-EP, pH 6.0, steady state.
Assay [18] has as its target T6, human complement C2. Nature of the assay: SPR, mAb captured, C2 analyte, HBS-EP, pH 7.3.
Description: as §1
The pH dependent anti-C2 antibodies and their germlined versions were tested for their affinity to C2 at pH 7.3 (neutral pH) and pH 6.0 (early endosome pH) using the SPR methods described above in HBS-EP buffer.
The target in assay [19] is T6, human complement C2. The assay can be described thus: cell-based or functional assay. This is another data set of the same source.

The Kd is a measure of binding affinity in units of concentration. One may read the koff as the rate constant with which the complex falls apart. The term kon denotes a measure of how fast the partners come together.

Description for human C2b: as §1, §3
Description for mouse C2: as §1
In addition to human C2, the pH dependent anti-C2 antibodies were also tested for their ability to bind to C2 from other mammalian species using the SPR methods described above in order to identify suitable surrogate species for in vivo testing. The antibodies were tested for binding at neutral pH against C2 from cynomolgus monkeys, mice, dogs, rabbits, rats, pigs, and sheep.

B1: RF16-226 (antibody, human IgG4 S228P, lambda)
heavy: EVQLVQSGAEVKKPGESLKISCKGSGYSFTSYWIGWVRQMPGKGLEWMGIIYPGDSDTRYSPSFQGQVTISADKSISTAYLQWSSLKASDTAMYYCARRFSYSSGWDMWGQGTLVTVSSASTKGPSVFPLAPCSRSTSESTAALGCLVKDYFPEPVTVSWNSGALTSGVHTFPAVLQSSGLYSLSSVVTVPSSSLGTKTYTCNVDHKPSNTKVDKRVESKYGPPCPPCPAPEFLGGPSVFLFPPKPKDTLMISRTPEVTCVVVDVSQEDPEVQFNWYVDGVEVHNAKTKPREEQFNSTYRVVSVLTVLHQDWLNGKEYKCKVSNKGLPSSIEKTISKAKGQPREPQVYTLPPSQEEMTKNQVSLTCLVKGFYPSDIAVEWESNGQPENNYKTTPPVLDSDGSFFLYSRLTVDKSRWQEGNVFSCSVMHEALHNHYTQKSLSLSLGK
light: SYELTQPPSVSVSPGQTARITCSGDALTSKYVAWYQQKSGLAPLLVIYEDTRRPSGIPAKFSGSSSGSVATLTISGAHGDDEADYYCYSTDASGHQRVFGGGTKLTVLSQPKAAPSVTLFPPSSEELQANKATLVCLISDFYPGAVTVAWKADGSPVKAGVETTKPSKQSNNKYAASSYLSLTPEQWKSHRSYSCQVTHEGSTVEKTVAPTECS
notes: Human antibody from a phage display library, unmodified Fc; also called WT
On to B1, for which the Kd in assay [1] was 0.0092 µM; in assay [2] it was 0.008 µM; in [3] it was 0.0942 µM; in [4] it was 0.0102 µM; in assay [5], 0.111 µM; in assay [6], 0.0936 µM. Also, the Kd in [7] was determined as 0.0111 µM; in assay [8], 2.1 µM; in assay [10], 0.0874 µM; in assay [11], 0.0093 µM. In addition, the koff in assay [1] is 0.00499 s⁻¹; in [4], 0.0057 s⁻¹; in [7], 0.0062 s⁻¹; in assay [11], 0.0059 s⁻¹. Besides, the kon came to 546000 M⁻¹ s⁻¹ in assay [1], 569000 M⁻¹ s⁻¹ in assay [4], 561000 M⁻¹ s⁻¹ in assay [7] and 631000 M⁻¹ s⁻¹ in [11]. Moreover, the results for the binding result (in [9]; with human C2b) were “no binding (tested: C2a tested up to 500 nM)” and “no binding (tested: C2b tested up to 1000 nM)”, respectively.

B2: RF16-203 (antibody, V domains shown)
VH: EVQLLESGGGLVQPGGSLRLSCAASGFTFSRYYMMWVRQAPGKGLEWVSSIGSSGGTTNYADSVKGRFTISRDNSKNTLYLQMNSLRAEDTATYYCAKGGMVLGVVNIWGQGTLVTVSS
VL: QSALTQPPSVSVSPGQTATITCSGDKLGEKYVSWYQQKPGQSPVVVIFQDIKRPSGIPERFSGSNSGNTATLTISGTQAMDEADYYCQTWGTGGIQVFGGGTKLTVLR
notes: Human antibody from a phage display library
Consider B2, for which the “IC50, inhibition of cyno classical pathway (hemolysis assay)” value with cynomolgus monkey C2 [12] was 0.361 µM. Besides, in the assay with human complement C2 [13], the “IC50, inhibition of human classical pathway (hemolysis assay)” value came to 0.042 µM. Moreover, the Kd came out at 0.0126 µM in the assay with human complement C2 [14]; 0.153 µM in the assay with mouse C2; 0.00282 µM with cynomolgus monkey C2 [16]; 0.073 µM with human complement C2 [17]; 0.0025 µM with human complement C2 [18]. Moreover, the “IC50, inhibition of cynomolgus classical complement pathway (Wieslab assay)” value with cynomolgus monkey C2 [15] is 0.0133 µM. Moreover, the “IC50, inhibition of cynomolgus lectin complement pathway (Wieslab assay)” value with cynomolgus monkey C2 [15] was 0.112 µM. In addition, in the assay with human complement C2 [19], the “IC50, inhibition of human classical complement pathway (Wieslab assay)” value was found to be 0.0054 µM. Besides, in the assay with human complement C2 [19], the “IC50, inhibition of human lectin complement pathway (Wieslab assay)” value stood at 0.00129 µM.
